The target of assay [1] is T1, human EGFRvIII protein on the cell surface (human, UniProt P00533 25-1210). Kind of assay: cell-based or functional assay.
For assay [2], the target named is T2, human wild-type EGFR protein on the cell surface (human, UniProt P00533 25-1210).
T2 construct: whole, on cells; Endogenous on A431, HEB, U87MG cells and normal human primary hepatocytes; transfected on CHOk1-EGFR cells; The cell is named under assay; also called A431; HEB
The experiment in a line: FACS on normal human primary hepatocytes. Here is the method: (§1) The preparation of U87MG-EGFRvIII required for FACS detection is as described in the preparation of the immunogen B in example 1. Normal human primary hepatocytes are purchased from BioreclamationIVT, and A431 tumor cells are purchased from ATCC. The recovered hepatocytes are directly used for FACS detection, and the recovered U87MG-EGFRvIII and A431 cells are subjected to an expanded culture to 90% confluence in a T-75 cell culture flask; the medium is sucked out, and the cells are washed twice with a HBSS buffer (Hanks Balanced Salt Solution) (purchased from Invitrogen), and then treated with an enzyme-free cell dissociation solution (Versene solution: purchased from Life Technology) and collected. The cells are washed twice with the HBSS buffer and are counted, and then the cells are diluted with the HBSS buffer to 2×10⁶ cells/ml, added with 1% goat serum blocking solution, with the percentage being the mass percentage, and incubated on ice for 30 minutes, and then centrifugally washed twice with the HBSS buffer. The collected cells are resuspended to 2×10⁶ cells/mL with an FACS buffer (HBSS+2% FBS, with the percentage being the volume percentage), added to a 96-well FACS reaction plate at 100 μL/well, then added with 100 μL/well of the purified EGFRvIII antibody (samples to be tested) obtained in example 12, and incubated on ice for 2 hours. The plate is centrifugally washed twice with the FACS buffer, added with 100 μL/well of a 1:1000 diluted fluorescence (Alexa 488) labeled secondary antibody (purchased from Invitrogen), and incubated on ice for 1 hour. The plate is centrifugally washed 3 times with the FACS buffer, added with 100 μL/well of a fixing solution [4% (v/v) paraformaldehyde] to resuspend the cells, and centrifugally washed twice with the FACS buffer after 10 minutes. The cells are resuspended in 100 μL of the FACS buffer, and the results are detected and analyzed by FACS (FACS Calibur, purchased from BD). Data analysis is performed by using the software (CellQuest) to obtain the mean fluorescence intensity (MFI) of the cells. Data is further analyzed by using the software (GraphPad Prism5) to perform data fitting and calculate EC50.

Assay [3] addresses T2, human wild-type EGFR protein on the …. The experiment in a line: FACS, MFI on A431 cells over MFI on normal primary hepatocytes. Here is the method:
as §1
Background: In flow cytometry, cells or beads pass a laser one at a time.

The target in assay [4] is T1, human EGFRvIII protein on the cell …. The experiment in a line: FACS on U87MG-EGFRvIII cells. Here is the method: as §1
Assay [5] deals with T3, human EGFRvIII-hFc protein (human, UniProt P00533 25-645).
T3 construct: extracellular domain; also called immunogen A; hFc-tagged EGFRvIII protein; not shown: human IgG Fc fragment (hFc) of the pCpC vector
Kind of assay: ELISA, EGFRvIII-hFc coated. Here is the method:
The purified humanized anti-EGFRvIII antibody obtained in example 12 is reacted with a human EGFRvIII-hFc protein.
The purified immunogen A (EGFRvIII-hFc) obtained in example 1 (for the preparation method, see step (I) in example 1) is diluted with PBS to a final concentration of 1.0 μg/mL, and then added to a 96-well ELISA plate at 100 μl/well. The plate is sealed with a plastic film and incubated at 4° C. overnight. The next day, the plate is washed twice with a plate washing solution [PBS+0.01% (v/v) Tween20], and added with a blocking solution [PBS+0.01% (v/v) Tween20+1% (w/w) BSA] for blocking 2 hours at room temperature. […] The plate is incubated for 2 hours at 37° C., and then washed 3 times with the plate washing solution [PBS+0.01% (v/v) Tween20]. The plate is added with an HRP (horseradish peroxidase) labeled secondary antibody (purchased from Sigma), incubated at 37° C. for 2 hours, and then washed 3 times with the plate washing solution [PBS+0.01% (v/v) Tween20]. The plate is added with 100 μl of TMB substrate/well, incubated for 30 minutes at room temperature, and then added with 100 μl of stopping solution (1.0N HCl)/well. A450 nm value is read using an ELISA plate reader (SpectraMax 384plus, purchased from Molecular Device).
For orientation: ELISA stands for enzyme-linked immunosorbent assay.

Assay [6] has as its target T2, human wild-type EGFR protein on the …. The experiment in a line: FACS on A431 tumor cells. Here is the method: as §1

B1: Chimeric antibody 7E5-MMAF (antibody, human IgG1, V domains shown)
VH: EIQLQQSGPELVKPGASVKVSCKASGYSFTDYNMYWVKQSHGKSLEWIGYVDPSNGGTNYNQKFKGKATLTVDKSSSTAFMHLNSLTSEDSAVYYCARGFFDYWGQGTTLTVSS
VL: DIVMTQSPSSLTVTAGEKVTMSCKSSQSLLNSGNQKNYLTWYQQKPGQPPKLLIYWASNRESGVPDRFTGSGSGKDFTLTISSVQAEDLAVYYCQNDYRYPVTFGAGTKLELK
modifications: MC-MMAF coupled after TCEP reduction (sites not given); DAR 3.51 for the antibody
As for B1, in assay [1], the “IC50, nM; cell killing of U87MG-hEGFRvIII (CellTiter-Glo, 5 days)” value (“IC50, nM; cell killing” below) was 0.04 nM.

B2: Chimeric antibody 63A10-MMAF (antibody, human IgG1, V domains shown)
VH: QVQLQQSGAELARPGASVKMSCKASGYTFISFTMHWVKQRPGQGLEWIGYINPNSGYTKYNQKFKDKATLTAGQSSSTAYMQLSSLTSEDSAVYYCTRGGGRGFAYWGQGTLVTVSA
VL: DILMTQSPSSMSVSLGDTVTITCHASQDINSNIGWLQQKPGKSFKALIYHGTNLEDGVPSRFSGSGSGADYSLTISSLESEDFADYYCVQYAQFPFTFGSGTKLEIK
modifications: MC-MMAF coupled after TCEP reduction (sites not given); DAR 3.10 for the antibody
On to B2, for which the “IC50, nM; cell killing” value in assay [1] came to 0.01 nM.

B3: Chimeric antibody 64F1-MMAF (antibody, human IgG1, V domains shown)
VH: QVQLQQSGAELARPGASVKMSCKASGYTFSSYTMHWAKQRPGQGLEWIGYINPSSGYTKYNQKFKDKATLTADKSSSTAYMQLSSLTSEDSIVYYCARGGGRGFAYWGQGTLVTVSA
VL: QIVLTQSPAIMSASPGERVTMTCSASSSVSYMYWYQQKPGSSPRLLIYDTSNLASGVPVRFSGSGSGTSYSLTISRVEAEDAATYYCQQWSSYSLTFGAGTKLELK
modifications: MC-MMAF coupled after TCEP reduction (sites not given); DAR 4.05 for the antibody
For B3, in assay [1], the “IC50, nM; cell killing” value was 0.01 nM.

B4: Humanized antibody h75G7C6-9 (antibody, human IgG1, V domains shown)
VH: QVQLVQSGAEVKKPGASVKVSCKASGYTFTDYNMDWVRQAPGQGLEWIGDINPNNADTIYNQKFKGRVTLTVDTSTSTVYMELSSLRSEDTAVYYCARGDYDGYYPVYYAMDYWGQGTTVTVSS
VL: EIVLTQSPATLSLSPGERATLSCRASSSVSSSYLHWYQQKPGQAPRLLIYSTSNLAAGIPARFSGSGSGTDFTLTISSLEPEDFAVYYCQQYSGYPLTFGGGTKVEIK
notes: also called VH-g1/VL-g0
The term EC50 denotes the midpoint of the concentration-response curve. Take B4: the MFI in assay [2] amounted to 238 MFI. In addition, the “Selective window (MFI A431/Hepatocytes)” value in assay [3] came to 45 fold. Also, in assay [4], the EC50 was 5830 pM and the “Maximum mean fluorescence intensity” value was 18200 MFI. In addition, in assay [5], the EC50 came to 580 pM and the “Maximum OD450 value” was 2.83 OD450. For the same molecule, the MFI in assay [6] was determined as 10700 MFI.

B5: Humanized antibody h75G7C6-14 (antibody, human IgG1, V domains shown)
VH: QVQLVQSGAEVKKPGASVKVSCKASGYTFTDYNMDWVKQAPGQGLEWIGDINPNNADTIYNQKFKGRVTLTVDKSTSTVYMELSSLRSEDTAVYYCARGDYDGYYPVYYAMDYWGQGTTVTVSS
VL: ENVLTQSPATLSLSPGERATLSCRASSSVSSSYLHWYQQKPGQAPRLLIFSTSNLAAGIPARFSGSGSGTDYTLTISSLEPEDFAVYYCQQYSGYPLTFGGGTKVEIK
notes: also called VH-g2/VL-g1
Turning to B5, in assay [2], the MFI worked out at 248 MFI. Further, the “Selective window (MFI A431/Hepatocytes)” value in assay [3] came to 46.2 fold. In addition, in assay [4], the midpoint of the response, the EC50, lay at 6370 pM and the “Maximum mean fluorescence intensity” value turned out to be 18500 MFI. In assay [5], the EC50 amounted to 320 pM and the “Maximum OD450 value” was found to be 3.03 OD450. The same molecule had an MFI in assay [6] of 11500 MFI.

B6: Humanized antibody h75G7C6-15 (antibody, human IgG1, V domains shown)
VH: QVQLVQSGAEVKKPGASVKVSCKASGYTFTDYNMDWVKQAPGQGLEWIGDINPNNADTIYNQKFKGRVTLTVDKSTSTVYMELSSLRSEDTAVYYCARGDYDGYYPVYYAMDYWGQGTTVTVSS
VL: ENVLTQSPATLSLSPGERATLSCRASSSVSSSYLHWYQQKPGQSPRLLIFSTSNLAAGIPARFSGSGSGTDYTLTISSLEPEDFAVYYCQQYSGYPLTFGGGTKVEIK
notes: also called VH-g2/VL-g2
As for B6, the MFI in assay [2] worked out at 287 MFI; in assay [6], 13000 MFI. Moreover, the “Selective window (MFI A431/Hepatocytes)” value in assay [3] was determined as 45.3 fold. Further, the EC50 in assay [4] was 6450 pM; in assay [5], 290 pM. Moreover, the “Maximum mean fluorescence intensity” value in assay [4] is 18900 MFI. Also, the “Maximum OD450 value” in assay [5] was 3.19 OD450.

B7: Humanized antibody h75G7C6-16 (antibody, human IgG1, V domains shown)
VH: QVQLVQSGAEVKKPGASVKVSCKASGYTFTDYNMDWVKQAPGQGLEWIGDINPNNADTIYNQKFKGRVTLTVDKSTSTVYMELSSLRSEDTAVYYCARGDYDGYYPVYYAMDYWGQGTTVTVSS
VL: ENVLTQSPATLSLSPGERATLSCRASSSVSSSYLHWYQQKPGQSPRLLIFSTSNLAAGVPARFSGSGSGTDYTLTISSLEPEDFAVYYCQQYSGYPLTFGGGTKVEIK
notes: also called VH-g2/VL-g3
B7 had an MFI in assay [2] of 269 MFI. In assay [3], the “Selective window (MFI A431/Hepatocytes)” value was 46.2 fold. Further, in assay [4], a half-maximal effect (EC50) was put at 6740 pM and the “Maximum mean fluorescence intensity” value was 18900 MFI. Moreover, in assay [5], the midpoint of the response, the EC50, lay at 270 pM and the “Maximum OD450 value” came to 2.97 OD450. In addition, in assay [6], the MFI was found to be 12400 MFI.

B8: Humanized antibody h75G7C6-13 (antibody, human IgG1, V domains shown)
VH: QVQLVQSGAEVKKPGASVKVSCKASGYTFTDYNMDWVKQAPGQGLEWIGDINPNNADTIYNQKFKGRVTLTVDKSTSTVYMELSSLRSEDTAVYYCARGDYDGYYPVYYAMDYWGQGTTVTVSS
VL: EIVLTQSPATLSLSPGERATLSCRASSSVSSSYLHWYQQKPGQAPRLLIYSTSNLAAGIPARFSGSGSGTDFTLTISSLEPEDFAVYYCQQYSGYPLTFGGGTKVEIK
notes: also called VH-g2/VL-g0
In assay [2], B8 returned an MFI of 256 MFI. For the same molecule, the “Selective window (MFI A431/Hepatocytes)” value in assay [3] stood at 44.7 fold. In addition, in assay [4], the EC50 worked out at 6770 pM and the “Maximum mean fluorescence intensity” value was found to be 18700 MFI. Besides, in assay [5], the EC50 was 480 pM and the “Maximum OD450 value” was determined as 3.16 OD450. For the same molecule, in assay [6], the MFI amounted to 11500 MFI.

B9: Chimeric antibody 75G7-MMAF (antibody, human IgG1, V domains shown)
VH: EVQLQQSGPELVKPGASVKIPCKASGYTFTDYNMDWVKQSHGKSLEWIGDINPNNGDTIYNQKFKGKATLTVDKSSSTAYMELRSLTSEDTAVYYCARGDYDGYYPVYYAMDYWGQGTSVTVSS
VL: ENVLTQSPAIMSASPGEKVTMTCRASSSVSSSYLHWYQQKSGASPKLWIFSTSNLAAGVPARFSGSGSGTSYSLTVSSVEAEDAATYYCQQYSGYPLTFGAGTKLELK
modifications: MC-MMAF coupled after TCEP reduction (sites not given); DAR 3.40 for the antibody
In the case of B9, the “IC50, nM; cell killing” value in assay [1] came out at 0.27 nM.

These data come from patent publication US20210032351A1 (XDCEXPLORER SHANGHAI, published 2021).
